Measurements taken from paper PMC8299219 (Cell, 2021).

molecular target: SARS-CoV-2 S ectodomain trimer, prefusion-stabilized, 2P variant (Wrapp et al., 2020) (SARS-CoV-2, Wuhan-Hu-1, UniProt P0DTC2, stabilised)

Binder	binding result
C81D9 (antibody, V domains shown) VH: QVQLVESGGGVVQPGRSLRLSCAASGFTFSSYAMHWVRQAPGKGLEWVAVISYDGSNKYYADSVRGRFTISRDNSKNTLYLQMNSLRAEDTAVYYCARAWGGSYRGGLDYWGQGTLVTVSS VL: DIQMTQSPSSLSASVGYRVTITCRASQSISSWLAWYQQKPGKAPKLLIYKASSLESGVPSRFSGSGSGTEFTLTISSLQPDDFATYYCQQYNSYWTFGQGTKVEIK	binds
G32M4 (antibody, V domains shown) VH: QVQLVESGGGVVQPGRSLRLSCAASGFTFRSYAMHWVRQAPGKGLEWVAVISYDGSNKYYADSVKGRFTISRDNSKNTLYLQMNSLRAEDTAVYYCAKSYSGSYLAAFDIWGQGTMVTVSS VL: EIVLTQSPGTLSLSPGERATLSCRASQIFSSSYLAWYQQKPGQAPRLLIYGASSRATGIPDRFSGSGSGTDFTLTISRLEPEDFAVYYCQQYGSSITFGQGTRLEIK	binds
C30A5 (antibody, V domains shown) VH: QVQLVESGGGVVQPGRSLRLSCAASGFTFSTYAMHWVRQAPGKGLEWVAVISYDGSNKYYADSVKGRFTISRDNSKNTLYLQLNSLRAEDTAVYYCAKSGSGHYFAPFDYWGQGTLVTVSS VL: not shown	binds
C12I9 (antibody, V domains shown) VH: QVQLVQSGAEVKKPGASVKVSCKASGYTFTGYYMHWVRQDPGQGLEWMGWINPNSGVTNYAQKFQGWVTMTRDTSISTAYMELSRLKSDDTAVYYCAREVGAVAGTFYYGLDVWGQGTTVTVSS VL: QSALTQPRSVSGSPEQSVAISCTGTSSDVGGNNYVSWYQQHPGKAPKLMIYDVSKRPSGVPDRFSGSKSGNTASLTISGLQAEDEADYYCCSYAGSYTFGVVFGGGTKLTVL	binds
C81E2 (antibody, V domains shown) VH: not shown VL: DIQMTQSPSSLSASVGDRVTITCRASQGISNYLAWYQQKPGKVPKLLIYAASTLQSGVPSRFSGSGSGTDFTLTISSLQPEDVATYYCQKYNSASPLTFGGGTKVEIK	binds
G32R10 (antibody, V domains shown) VH: EVQLLESGGGLVQPGGSLRLSCAASGFTFSRYAMSWVRQAPGKGLEWVSAISGSGGSTYYSDSVEGRFTISRDNSKNTLYVQMNSLRAEDTAVYYCAKDAGFIPLYYFDYWGQGTLVTVSS VL: EIVMTQSPVTLSVSPGERATLSCRASQSVSSNLAWYQQKPGQAPRLLIYGASTRATGIPARFSGSGSGTEFTLIISSLQSEDFAVYNCQQYNNWPWTFGQGTKVEIK	binds
C163D1 (antibody, V domains shown) VH: QVQLVQSGAEVKKPGSSVKVSCKASGGTFSSYAISWVRQAPGQGLEWMGGIIPIFGTANYAQKFQGRVTITADESTSTAYMELSSLRSEDTAVYYCARVSGYDSSGYSPDYWGQGTLVTVSS VL: EIVLTQSPATLSLSPGERATLSCRASQSVSSYLAWYQQKPGQAPRLLIYDASNRATGIPARFSGSGSGTDFTLTISSLEPEDFAVYYCQQRSNWPPRLTFGGGTKVEIK	binds
C12B2 (antibody, V domains shown) VH: QVQLVQSGAEVKKPGSSVKVSCKASGGTFSSYAISWVRQAPGQGLEWMGGIIPIFGTANYAQKFQGRVTITADESTSTAYMELSSLRSEDTAVYYCARMDYYDSSGYYLDYWGQGTLVTVSS VL: EIVLTQSPATLSLSPGERATLSCRASQSVSNFLAWYQQKPGQAPRLLIYDASNRATGIPARFSGSGSGTDFTLTISSLEPEDFAVYYCLQRSNWPPRLTFGGGTKVEIK	binds
C107A2 (antibody, V domains shown) VH: EVQLVESGGGLVQPGGSLRLSCAASEFTVNNNYMSWVRQAPGKGLEWVSIIYSGGSTYYADSVKGRFTISRDNSKNTLYLQMNSLRAEDTAVYYCARNHITMVRGVIKYQDYWGQGTLVTVSS VL: not shown	binds
C41N6 (antibody, V domains shown) VH: QVQLVESGGGVVQPGGSLRLSCAASGFTFSSYGMHWVRQAPGKGLEWVAFIRYDGSNNYYADSVKGRFTISRHNSKNTLYLQMNSLRAEDTAVYYCAKVTITIFGVVIYGMDVWGQGTTVTVSS VL: not shown	binds
